This note sets out measurements from US20090149381.

Sequence of human recombinant MMP-9 (chain, as listed by the source): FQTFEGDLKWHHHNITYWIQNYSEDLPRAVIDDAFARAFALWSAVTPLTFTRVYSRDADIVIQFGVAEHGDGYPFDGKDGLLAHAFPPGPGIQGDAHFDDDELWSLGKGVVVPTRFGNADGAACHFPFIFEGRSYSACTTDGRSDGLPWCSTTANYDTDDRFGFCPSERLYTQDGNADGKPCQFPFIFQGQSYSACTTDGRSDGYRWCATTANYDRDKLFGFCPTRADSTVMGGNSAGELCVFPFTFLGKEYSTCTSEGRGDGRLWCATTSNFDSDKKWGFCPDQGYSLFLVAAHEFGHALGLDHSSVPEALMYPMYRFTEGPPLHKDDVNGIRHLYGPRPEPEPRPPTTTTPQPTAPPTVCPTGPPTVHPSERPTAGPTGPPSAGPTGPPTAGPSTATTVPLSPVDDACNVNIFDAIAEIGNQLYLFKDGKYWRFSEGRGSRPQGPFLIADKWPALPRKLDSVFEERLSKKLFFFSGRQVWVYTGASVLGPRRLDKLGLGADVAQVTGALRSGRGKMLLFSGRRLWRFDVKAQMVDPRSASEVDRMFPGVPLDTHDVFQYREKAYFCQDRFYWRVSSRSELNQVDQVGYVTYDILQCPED

In the series the target is human recombinant PEDF (pigment epithelium-derived factor) (UniProt P36955).
Sequence of human recombinant PEDF (pigment epithelium-derived factor) (P36955 20-418): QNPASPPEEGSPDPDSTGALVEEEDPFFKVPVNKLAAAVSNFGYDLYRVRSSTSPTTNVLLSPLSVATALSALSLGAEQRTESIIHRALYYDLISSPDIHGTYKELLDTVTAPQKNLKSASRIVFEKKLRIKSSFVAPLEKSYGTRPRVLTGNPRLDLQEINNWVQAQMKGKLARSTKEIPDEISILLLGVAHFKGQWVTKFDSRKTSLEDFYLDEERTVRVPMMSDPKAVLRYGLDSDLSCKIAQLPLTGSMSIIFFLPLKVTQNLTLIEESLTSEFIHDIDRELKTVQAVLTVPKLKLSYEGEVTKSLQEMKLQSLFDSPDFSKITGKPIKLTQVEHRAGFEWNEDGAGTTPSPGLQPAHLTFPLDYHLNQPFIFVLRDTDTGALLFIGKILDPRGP
Consider MMP-7, for which the “PEDF fragments observed by SDS-PAGE after protease treatment” value was “resulted in the generation of multiple PEDF fragments that were observed by SDS-PAGE. These fragments had estimated relative molecular weights of 44 and 42 KDa”.
As for activated MMP-2, the entry is “resulted in the generation of multiple PEDF fragments that were observed by SDS-PAGE. These fragments had estimated relative molecular weights of 44 and 42 KDa”; as for human recombinant MMP-9, “resulted in the generation of multiple PEDF fragments that were observed by SDS-PAGE. These fragments had estimated relative molecular weights of 44 and 42 KDa”.
